# Experimental data as given in article PMC11263391, “Molecular insights into degron recognition by CRL5^ASB7 ubiquitin ligase” (Nature Communications, 2024).
# Biological target: ASB7-Elongin B-Elongin C ternary complex (human), Q9H672
# Test: ITC; peptide (0.8–4 mM) titrated into the ASB7 complex (39–156 µM); 16 °C; 20 mM Tris-HCl pH 7.5, 150 mM NaCl; MicroCal PEAQ-ITC
# Chain of ASB7-Elongin B-Elongin C ternary complex (human), Q9H672 (Q9H672 11-318, chain 1 of 3): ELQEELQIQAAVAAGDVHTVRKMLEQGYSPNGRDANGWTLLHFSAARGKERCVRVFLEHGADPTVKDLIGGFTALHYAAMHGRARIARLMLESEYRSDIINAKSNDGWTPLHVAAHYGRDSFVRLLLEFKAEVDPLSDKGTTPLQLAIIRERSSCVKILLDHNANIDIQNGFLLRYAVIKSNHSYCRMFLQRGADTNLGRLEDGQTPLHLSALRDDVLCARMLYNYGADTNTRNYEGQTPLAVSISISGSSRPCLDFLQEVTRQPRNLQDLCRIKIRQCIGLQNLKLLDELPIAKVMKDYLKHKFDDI
# Chain of ASB7-Elongin B-Elongin C ternary complex (human), Q9H672 (Q15370 1-104, chain 2 of 3, further chain): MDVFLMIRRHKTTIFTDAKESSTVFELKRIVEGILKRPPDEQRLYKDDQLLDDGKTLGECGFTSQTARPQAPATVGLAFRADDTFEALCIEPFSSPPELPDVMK
# Chain of ASB7-Elongin B-Elongin C ternary complex (human), Q9H672 (Q15369 17-112, chain 3 of 3, further chain): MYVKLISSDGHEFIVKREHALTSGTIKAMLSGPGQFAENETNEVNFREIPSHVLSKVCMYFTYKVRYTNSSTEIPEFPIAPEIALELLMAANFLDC
Binder,Kd,fold decrease in binding affinity against the LZTS1-degron
ELEKAKQECQDLKGKLEKCCRH (modifications not checked) [CEP152-degron 23-residue peptide],3.8 µM,–
ELESLMKEQDLLETKLR (modifications not checked) [LZTS1 17-residue degron],–,6 fold
